T1: MPDZ_10, O75970
T1 sequence (O75970 1624-1722, limits assumed, looked up): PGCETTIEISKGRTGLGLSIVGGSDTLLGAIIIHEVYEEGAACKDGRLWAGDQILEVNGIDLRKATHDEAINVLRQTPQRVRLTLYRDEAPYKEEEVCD

T2: DLG3_2, Q92796
T2 sequence (Q92796 221-321, limits assumed, looked up): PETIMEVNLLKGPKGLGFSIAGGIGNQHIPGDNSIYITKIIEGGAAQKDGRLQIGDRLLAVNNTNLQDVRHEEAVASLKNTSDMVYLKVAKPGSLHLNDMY

T3: TIAM2, Q8IVF5
T3 sequence (Q8IVF5 885-986, limits assumed, looked up): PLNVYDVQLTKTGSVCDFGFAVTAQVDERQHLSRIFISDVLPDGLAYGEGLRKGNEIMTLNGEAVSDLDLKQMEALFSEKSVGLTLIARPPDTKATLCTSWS

T4: DFNB31_1, Q9P202
T4 sequence (Q9P202 135-233, limits assumed, looked up): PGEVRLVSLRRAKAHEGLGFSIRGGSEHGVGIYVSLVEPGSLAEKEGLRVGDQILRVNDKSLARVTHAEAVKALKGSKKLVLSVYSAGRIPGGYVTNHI

T5: SNTA1, Q13424
T5 sequence (Q13424 82-180, limits assumed, looked up): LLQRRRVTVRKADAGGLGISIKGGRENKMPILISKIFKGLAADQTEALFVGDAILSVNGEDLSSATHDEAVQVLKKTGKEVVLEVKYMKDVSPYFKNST

T6: SNTG1, Q9NSN8
T6 sequence (Q9NSN8 52-150, limits assumed, looked up): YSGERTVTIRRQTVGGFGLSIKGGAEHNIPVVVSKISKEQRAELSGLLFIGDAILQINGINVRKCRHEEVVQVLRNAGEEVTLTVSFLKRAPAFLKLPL

T7: NHERF3_1, Q5T2W1
T7 sequence (Q5T2W1 4-100, limits assumed, looked up): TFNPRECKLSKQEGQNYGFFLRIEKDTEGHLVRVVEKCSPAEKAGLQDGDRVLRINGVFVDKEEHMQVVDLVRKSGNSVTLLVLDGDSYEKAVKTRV

T8: SNTG2, Q9NY99
T8 sequence (Q9NY99 68-166, limits assumed, looked up): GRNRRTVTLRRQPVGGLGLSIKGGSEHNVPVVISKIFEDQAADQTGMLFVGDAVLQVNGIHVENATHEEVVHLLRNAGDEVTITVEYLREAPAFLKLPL

T9: HTRA4, P83105
T9 sequence (P83105 378-476, limits assumed, looked up): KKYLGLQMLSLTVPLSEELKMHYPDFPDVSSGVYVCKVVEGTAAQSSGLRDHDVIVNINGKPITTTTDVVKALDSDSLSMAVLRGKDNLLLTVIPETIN

T10: LIN7B, Q9HAP6
T10 sequence (Q9HAP6 88-185, limits assumed, looked up): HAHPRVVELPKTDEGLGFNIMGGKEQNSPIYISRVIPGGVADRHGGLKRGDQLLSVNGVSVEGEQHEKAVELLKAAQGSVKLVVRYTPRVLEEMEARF

T11: RAPGEF6, Q8TEU7
T11 sequence (Q8TEU7 525-625, limits assumed, looked up): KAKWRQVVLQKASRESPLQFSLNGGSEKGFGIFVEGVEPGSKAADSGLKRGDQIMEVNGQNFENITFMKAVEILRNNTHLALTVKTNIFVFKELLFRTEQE


Legend:
Assay in all cases: holdup assay
Set-up in all cases: key: below the threshold = too weak to quantify, mostly under pKd 3.1 to 4
Conditions in all cases: plain residues with an end cap or a label only (N-terminal biotin on a linker: ado-ado)
MPDZ_10, O75970 = target: T1, MPDZ_10, O75970
DLG3_2, Q92796 = target: T2, DLG3_2, Q92796
TIAM2, Q8IVF5 = target: T3, TIAM2, Q8IVF5
DLG5_1, Q8TDM6 = target: DLG5_1, Q8TDM6
DLG5_1, Q8TDM6, sequence (Q8TDM6 617-713): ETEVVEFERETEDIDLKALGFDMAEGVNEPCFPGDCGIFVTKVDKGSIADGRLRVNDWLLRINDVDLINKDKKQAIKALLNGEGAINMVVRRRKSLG

DFNB31_1, Q9P202 = target: T4, DFNB31_1, Q9P202
DLG4_3, P78352 = target: DLG4_3, P78352
DLG4_3, P78352, sequence (P78352 306-403): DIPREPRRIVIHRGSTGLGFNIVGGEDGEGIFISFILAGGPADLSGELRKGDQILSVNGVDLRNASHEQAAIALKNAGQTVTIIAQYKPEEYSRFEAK

SNTA1, Q13424 = target: T5, SNTA1, Q13424
FRMPD2_2, Q68DX3 = target: FRMPD2_2, Q68DX3
FRMPD2_2, Q68DX3, sequence (Q68DX3 944-1038): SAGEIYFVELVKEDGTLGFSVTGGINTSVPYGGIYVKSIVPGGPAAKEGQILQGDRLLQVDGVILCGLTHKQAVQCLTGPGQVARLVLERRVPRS

SNTG1, Q9NSN8 = target: T6, SNTG1, Q9NSN8
PDLIM1, O00151 = target: PDLIM1, O00151
PDLIM1, O00151, sequence (O00151 1-87): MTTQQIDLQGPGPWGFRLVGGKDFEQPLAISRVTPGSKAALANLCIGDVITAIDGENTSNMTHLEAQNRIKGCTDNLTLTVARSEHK

GORASP2, Q9H8Y8 = target: GORASP2, Q9H8Y8
NHERF3_1, Q5T2W1 = target: T7, NHERF3_1, Q5T2W1
PARD3_3, Q8TEW0 = target: PARD3_3, Q8TEW0
PARD3_3, Q8TEW0, sequence (Q8TEW0 582-685): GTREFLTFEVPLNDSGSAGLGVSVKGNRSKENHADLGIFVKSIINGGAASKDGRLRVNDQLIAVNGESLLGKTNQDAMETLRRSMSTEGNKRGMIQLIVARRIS

SNTG2, Q9NY99 = target: T8, SNTG2, Q9NY99
CASK, O14936 = target: CASK, O14936
CASK, O14936, sequence (O14936 487-570): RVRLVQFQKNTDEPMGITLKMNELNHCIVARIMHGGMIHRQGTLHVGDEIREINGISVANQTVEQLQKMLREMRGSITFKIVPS

GOPC, Q9HD26 = target: GOPC, Q9HD26
SCRIB_1, Q14160 = target: SCRIB_1, Q14160
SCRIB_1, Q14160, sequence (Q14160 718-814): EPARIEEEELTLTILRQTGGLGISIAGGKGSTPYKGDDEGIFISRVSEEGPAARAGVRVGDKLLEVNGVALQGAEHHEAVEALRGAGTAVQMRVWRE

IL16_1, Q14005 = target: IL16_1, Q14005
IL16_1, Q14005, sequence (Q14005 210-306): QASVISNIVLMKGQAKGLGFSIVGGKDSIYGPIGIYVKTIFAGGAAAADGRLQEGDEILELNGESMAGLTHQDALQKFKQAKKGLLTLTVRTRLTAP

HTRA4, P83105 = target: T9, HTRA4, P83105
LIMK2, P53671 = target: LIMK2, P53671
LIMK2, P53671, sequence (P53671 143-248): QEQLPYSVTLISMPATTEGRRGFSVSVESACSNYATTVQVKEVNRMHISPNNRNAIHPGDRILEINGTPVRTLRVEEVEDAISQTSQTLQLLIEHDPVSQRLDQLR

IL16_4, Q14005 = target: IL16_4, Q14005
IL16_4, Q14005, sequence (Q14005 1229-1329): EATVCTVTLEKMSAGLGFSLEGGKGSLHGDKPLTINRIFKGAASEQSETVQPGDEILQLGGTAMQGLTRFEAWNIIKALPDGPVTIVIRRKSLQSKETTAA

LIN7B, Q9HAP6 = target: T10, LIN7B, Q9HAP6
NOS1, P29475 = target: NOS1, P29475
NOS1, P29475, sequence (P29475 9-101): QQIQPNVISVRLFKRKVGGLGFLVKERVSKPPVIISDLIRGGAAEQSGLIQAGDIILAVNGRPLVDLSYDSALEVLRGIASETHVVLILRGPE

RAPGEF6, Q8TEU7 = target: T11, RAPGEF6, Q8TEU7
GRIP2_5, Q9C0E4 = target: GRIP2_5, Q9C0E4
GRIP2_5, Q9C0E4, sequence (Q9C0E4 544-642): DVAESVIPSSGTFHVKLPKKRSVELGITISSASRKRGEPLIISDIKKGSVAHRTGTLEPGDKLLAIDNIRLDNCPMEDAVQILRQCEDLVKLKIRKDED

Inadl_8, Q8NI35 = target: Inadl_8, Q8NI35
Inadl_8, Q8NI35, sequence (Q8NI35 1425-1530): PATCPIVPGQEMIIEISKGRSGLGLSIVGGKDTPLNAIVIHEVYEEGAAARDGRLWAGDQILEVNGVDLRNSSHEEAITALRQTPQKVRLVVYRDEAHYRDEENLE

Row | pKd (MPDZ_10, O75970) | pKd (DLG3_2, Q92796) | pKd (TIAM2, Q8IVF5) | pKd (DLG5_1, Q8TDM6) | pKd (DFNB31_1, Q9P202) | pKd (DLG4_3, P78352) | pKd (SNTA1, Q13424) | pKd (FRMPD2_2, Q68DX3) | pKd (SNTG1, Q9NSN8) | pKd (PDLIM1, O00151) | pKd (GORASP2, Q9H8Y8) | pKd (NHERF3_1, Q5T2W1) | pKd (PARD3_3, Q8TEW0) | pKd (SNTG2, Q9NY99) | pKd (CASK, O14936) | pKd (GOPC, Q9HD26) | pKd (SCRIB_1, Q14160) | pKd (IL16_1, Q14005) | pKd (HTRA4, P83105) | pKd (LIMK2, P53671) | Binder | other results
1 | 3.95 | 4.79 | below the threshold | below the threshold | 3.57 | 4.23 | 5.32 | below the threshold | below the threshold | below the threshold | 4.26 | below the threshold | below the threshold | 3.89 | below the threshold | 4.08 | 3.92 | below the threshold | below the threshold | below the threshold | PPYRHRNTVV [ERBB4, Q15303] | pKd (IL16_4, Q14005): below the threshold; pKd (LIN7B, Q9HAP6): below the threshold; pKd (NOS1, P29475): 3.64; pKd (RAPGEF6, Q8TEU7): below the threshold; pKd (GRIP2_5, Q9C0E4): below the threshold; pKd (Inadl_8, Q8NI35): 4.29
2 | below the threshold | 4.15 | 4.05 | below the threshold | below the threshold | below the threshold | below the threshold | below the threshold | below the threshold | below the threshold | below the threshold | 4.78 | 4.43 | below the threshold | 3.52 | below the threshold | below the threshold | below the threshold | 3.64 | 3.61 | CLREWCDAFL [BANF1, O75531] | pKd (IL16_4, Q14005): below the threshold; pKd (LIN7B, Q9HAP6): 3.94; pKd (NOS1, P29475): below the threshold; pKd (RAPGEF6, Q8TEU7): 3.47; pKd (GRIP2_5, Q9C0E4): below the threshold; pKd (Inadl_8, Q8NI35): below the threshold
3 | below the threshold | below the threshold | below the threshold | below the threshold | below the threshold | below the threshold | below the threshold | below the threshold | below the threshold | below the threshold | below the threshold | 4.56 | below the threshold | below the threshold | below the threshold | below the threshold | below the threshold | below the threshold | below the threshold | below the threshold | IKAIVDLTGL [TRAF2, Q12933] | pKd (IL16_4, Q14005): below the threshold; pKd (LIN7B, Q9HAP6): below the threshold; pKd (NOS1, P29475): below the threshold; pKd (RAPGEF6, Q8TEU7): below the threshold; pKd (GRIP2_5, Q9C0E4): below the threshold; pKd (Inadl_8, Q8NI35): below the threshold
4 | below the threshold | below the threshold | below the threshold | below the threshold | below the threshold | below the threshold | below the threshold | below the threshold | below the threshold | below the threshold | below the threshold | below the threshold | below the threshold | below the threshold | below the threshold | below the threshold | below the threshold | below the threshold | 3.88 | below the threshold | GSGAVEMESV [AQP6, Q13520] | pKd (IL16_4, Q14005): below the threshold; pKd (LIN7B, Q9HAP6): below the threshold; pKd (NOS1, P29475): below the threshold; pKd (RAPGEF6, Q8TEU7): below the threshold; pKd (GRIP2_5, Q9C0E4): below the threshold; pKd (Inadl_8, Q8NI35): below the threshold
5 | below the threshold | below the threshold | below the threshold | below the threshold | below the threshold | below the threshold | below the threshold | below the threshold | below the threshold | below the threshold | below the threshold | 4.72 | below the threshold | below the threshold | below the threshold | 3.5 | 4.36 | below the threshold | below the threshold | below the threshold | SARSRLSSNL [HCN2, Q9UL51] | pKd (IL16_4, Q14005): below the threshold; pKd (LIN7B, Q9HAP6): below the threshold; pKd (NOS1, P29475): below the threshold; pKd (RAPGEF6, Q8TEU7): below the threshold; pKd (GRIP2_5, Q9C0E4): below the threshold; pKd (Inadl_8, Q8NI35): below the threshold
